Test results taken from patent publication US20170129967A1 (CHEMOTHERAPEUTISCHES FORSCHUNGSINSTITUT GEORG SPEYER HAUS, published 2017).

Target: human ErbB2 (HER2) expressed on cells (Renca-lacZ/ErbB2 murine renal cell carcinoma cells); MDA-MB453 human … (human, UniProt P04626 23-1255)
Assay: cell-based or functional assay

B1: chimeric antigen receptor (CAR) 5.28.z, on the surface of clonal NK-92/5.28.z cells (receptor)
chain: QVQLQQSGPELKKPGETVKISCKASGYPFTNYGMNWVKQAPGQGLKWMGWINTSTGESTFADDFKGRFDFSLETSANTAYLQINNLKSEDSATYFCARWEVYHGYVPYWGQGTTVTVSSGGGGSGGGGSGGGGSDIQLTQSHKFLSTSVGDRVSITCKASQDVYNAVAWYQQKPGQSPKLLIYSASSRYTGVPSRFTGSGSGPDFTFTISSVQAEDLAVYFCQQHFRTPFTFGSGTKLEIKALSNSIMYFSHFVPVFLPAKPTTTPAPRPPTPAPTIASQPLSLRPEACRPAAGGAVHTRGLDKPFWVLVVVGGVLACYSLLVTVAFIIFWVRSKRSRLLHSDYMNMTPRRPGPTRKHYQPYAPPRDFAAYRSRVKFSRSADAPAYQQGQNQLYNELNLGRREEYDVLDKRRGRDPEMGGKPRRKNPQEGLYNELQKDKMAEAYSEIGMKGERRRGKGHDGLYQGLSTATKDTYDALHMQALPPR
- specific lysis at an E/T ratio of 10:1 (NK-92/5.28.z irradiated with 10 Gy, MDA-MB453 target cells, 2 h co-incubation): 65 % specific lysis
